Target: histone H4 (in the NCP), unmodified at K20 (human, UniProt P62805 1-103)
Assay: cryo-EM structure

- binding result: binds
B1: BARD1 (ARD–BRCT), residues 415–777, as tethered to the NCP in BARD1^AB–NCPub (domain or fragment)
chain: KLLPNMAVKRNHRGETLLHIASIKGDIPSVEYLLQNGSDPNVKDHAGWTPLHEACNHGHLKVVELLLQHKALVNTTGYQNDSPLHDAAKNGHVDIVKLLLSYGASRNAVNIFGLRPVDYTDDESMKSLLLLPEKNESSSASHCSVMNTGQRRDGPLVLIGSGLSSEQQKMLSELAVILKAKKYTEFDSTVTHVVVPGDAVQSTLKCMLGILNGCWILKFEWVKACLRRKVCEQEEKYEIPEGPRRSRLNREQLLPKLFDGCYFYLWGTFKHHPKDNLIKLVTAGGGQILSRKPKPDSDVTQTINTVAYHARPDSDQRFCTQYIIYEDLCNYHPERVRQGKVWKAPSSWFIDCVMSFELLPLDS
